The results in this text go back to the DeepSol protein solubility set.

This data set is described as follows: soluble on expression in E. coli; label from the status in PepcDB or PDB records.
As for “MAHHHHHHMQKTLFDFVRKGTSSGPAAANAVAAAHRERQWPSASNGEDSTPRTDSPPKKHAKTRREGSRSRGNSRECEGTSLKGASRDDAIDLDASVSVALLESTFPPSEEGGAIDKSKHVSSGTAVPAGAAATAAASSGTARSDAPQLQPAATSSRWLAGLITNLEWRDFLAPITVDSWRSGAFARIEHFLDGEMAKGKVILPPATDIFNAFNSCPFRDLKVVLLGQDPYHDLHQAHGLCFSVLPEVPLPPSLRNIYKELTTDIPGFQAPRHGYLQSWSEQGMLMLNATLTVEAHKANSHSKASGWTAFTDAVIQHLSQHHPNRLVFLLWGGYAQQKKKLIDASRHIVLESVHPSPLSASRGWFGCHCFSACNEALQSMGHLPMHWQLPLNASLP”, the “soluble on expression in E. coli” value is “not soluble”.

In the case of “MGSDKIHHHHHHMRASVLSDWLAQRLDRGNGQPIYRQLHRLLQQAILTRELPPGSKVPSSRLLAQELGIGRNTVTQVYEQLVLEGYVSSATGRGTFVADSAPDEIVGVPDAAAPDTSAESSPQQAKRALSTRGARLIAGAGVSKRQWGAFMPGVPDVTKFPARVWSRLHNKYWRRLRPDLLTYAPGGGLASLRHALADYLRTSRSVRCTPEQIIITTGIHQSVDLAVRLLSDPGDVIWTEDPCYWGVRSVLHVSGLQSRPIAVDEEGINPSADDLAQPPKLMLVTPSHQYPLGMVMSLARRRMLLEYARQNQCWIIEDDYDSEYRYGSRPLASLQGLDTSGQVIYVGSFGKTLFPGLRIGYLVVPEALAESFATASAELYREGQLLQQAMLAEFIAEGHFTSHIRRMRTLYGQRRQTLLDAAAHRYGDALPAVGGDAGLHLVMQLPEGSDDRQVAATALERNIVVRPLSGYYAQPSLAPSGLLIGYACVPDEEIAPAFNTLADAIDVTLPEFA”, the “soluble on expression in E. coli” value was “not soluble”.

Turning to “MGSDKIHHHHHHMEKRQSIKDIEANGDVRGLFLLGAATLNQARNGPFWRLELRDATGTMEAKIWSPQSQAYPDLAPGQIVDLEGRSGTYRDRVEVTVERLRTLGEAEQASLDISQFLPASERPAAEMLEELERLCREVFTHAPWRKFVLGVLRDDDVRPRLLVAPAAKAVHHAFVGGLVEHILSVTRLCLHLAEHYPELDRQALVAGAIFHDIGKVWELTGGLANDYSDEGRLLGHIHIGLERIEPHLRKSGLEPELVMHFKHLILSHHGELEYGSPKRPKTAEAMVLHYADNIDAKMAQMRGLFANMGEGETGWSPYQNTLQRFLYRPARTPEPVATTRRRRGTPEVEQCSLLSKA”, the “soluble on expression in E. coli” value is on record as “not soluble”.

On to “MAGILHNEGVKVAITTDHPVTRIQDLLICAGLAAKEGLGIEEGLKAITINPAEICNVANRVGSIEVNKDADIAIFDGNPMETFTKTMYTIINGEIVYSLKDLEHHHHHH”, for which the “soluble on expression in E. coli” value is “not soluble”.

As to “MRKYSQRHIPVMVREVIEFLKPEDEKIILDCTVGEGGHSRAILEHCPGCRIIGIDVDSEVLRIAEEKLKEFSDRVSLFKVSYREADFLLKTLGIEKVDGILMDLGVSTYQLKGENRGFTFEREEPLDMRMDLESEVTAQKVLNELPEEELARIIFEYGEEKRFARRIARKIVENRPLNTTLDLVKAVREALPSYEIRRRKRHFATKTFQAIRIYVNRELENLKEFLKKAEDLLNPGGRIVVISFHSLEDRIVKETFRNSKKLRILTEKPVRPSEEEIRENPRARSGRLRAAERIEEGGD”, the “soluble on expression in E. coli” value is recorded as “soluble”.

Consider “MGNRLSKIYTRTGDRGETGLAGGRRVPKSHPRIEAIGAVDELNSQLGLLLAELLEARGAHPGLEEIVQALAPVQHRLFDLGGELAMPEYRALDETEVARLESCIDRWNDELGPLKNFILPGGSRPVAQAHVCRSLARSAERRCQALDQEETLEGVGLRYLNRLSDLLFVAARAIARRQGVAEILWEAAAKPD”, for which the “soluble on expression in E. coli” value is listed as “not soluble”.

Consider “MEKELDLSQYSVRTDLAVEAKDIALENQPKPNNQSEIKGVIVKEKEEQGVKISMVEITEEGAEAIGKKKGRYVTLESVGIREQDTEKQEEAMEEVFAKELNFFIKSLNIPDDASCLVVGLGNLSVTPDALGPKAVDNLLITRHLFELQPESVQDGFRPVSAIVPGVMGMTGIETSDIIFGVVKKVNPDFIIAIDALAARSIERVNATIQISDSGIHPGSGVGNKRKEISYETLGIPVIAIGIPTVVDAVSITSDTIDFILKHFGREMKEQGKPSKSLLPSGMTFGEKKKLTEDDLPNEEQRQTYLGMIGTLPDEEKRRLIHEVLAPLGHNLMVTPKEVDMFIEDMANVVAGGLNAALHHEVDQENFGAYTH”, for which the “soluble on expression in E. coli” value was “soluble”.

As for “MGHHHHHHSHMQTLPVASALSSHRTGPPPISPSKRKFSMEPGDEDLDCDNDHVSKMSRIFNPHLNKTANGDCRRDPRERSRSPIERAVAPTMSLHGSHLYTSLPSLGLEQPLALTKNSLDASRPAGLSPTLTPGERQQNRPSVITCASAGARNCNLSHCPIAHSGCAAPGPASYRRPPSAATTCDPVVEEHFRRSLGKNYKEPEPAPNSVSITGSVDDHFAKALGDTWLQIKAAKDGASSSPESASRRGQPASPSAHMVSHSHSPSVVS”, the “soluble on expression in E. coli” value is “not soluble”.

Turning to “EVEGDKTVPNNVANAPFAGTEPLAKKLGLTEVNSLNTAVAATSSFVQFNAIASHSTFASPSGTLADVNHHAEMQKENADFLMDNALSDVSDTTVLK”, the “soluble on expression in E. coli” value is reported as “not soluble”.

On to “MQSNKAFNLEKQNHTPRKHHQHHHQQHHQQQQQQQQQQPPPPIPANGQQASSQNEGLTIDLKNFRKPGEKTFTQRSRLFVGNLPPDITEEEMRKLFEKYGKAGEVFIHKDKGFGFIRLETRTLAEIAKVELDNMPLRGKQLRVRFACHSASLTVRNLPQYVSNELLEEAFSVFGQVERAVVIVDDRGRPSGKGIVEFSGKPAARKALDRCSEGSFLLTTFPRPVTVEPMDQLDDEEGLPEKLVIKNQQFHKEREQPPRFAQPGSFEYEYAMRWKALIEMEKQQQDQVDRNIKEAREKLEMEMEAARHEHQVMLMRQDLMRRQEELRRMEELHNQEVQKRKQLELRQEEERRRREEEMRRQQEEMMRRQQEGFKGTFPDAREQEIRMGQMAMGGAMGINNRGAMPPAPVPPGTPAPPGPATMMPDGTLGLTPPTTERFGQAATMEGIGAIGGTPPAFNRPAPGAEFAPNKRRRY”, for which the “soluble on expression in E. coli” value is reported as “soluble”.

As for “MSVVSLVGQMYKREKPIPEWKTLMLRELEELFSKHRVVLFADLTGTPTFVVQRVRKKLWKKYPMMVAKKRIILRAMKAAGLELDDNLLDDLVRGQMLLVFADGNPFKIVKEVEKEKVAMPVKPGDKAETEIRIPEGMTNLTPGPILSVFGKLRIQYQVRGGKIYIAKETVVAKPGDVISEDLAGLLMALGIRPIEKGVRVKFAIDGGVLITEDLLRPDIEAFRGDVIDAAKEALGLATEIVYMPVPEAVESAIVKAALAASALAAETGFIAPGTVEDVVRKAIAEEAAVVALLGDKARELGIEEAAPAAAPAAEEKAEEEKKEEEEEKKEDQELSGLDSIFGGF”, the “soluble on expression in E. coli” value is given as “soluble”.

For the sequence “SESSESKASSGLPIDLRGKRAFIAGIADDNGYGWAVAKSLAAAGAEILVGTWVPALNIFETSLRRGKFDQSRVLPDGSLMEIKKVYPLDAVFDNPEDVPEDVKANKRYAGSSNWTVQEAAECVRQDFGSIDILVHSLANGPEVSKPLLETSRKGYLAAISASSYSFVSLLSHFLPIMNPGGASISLTYIASERIIPGYGGGMSSAKAALESDTRVLAFEAGRKQNIRVNTISAGPLGSRAAKAIGFIDTMIEYSYNNAPIQKTLTADEVGNAAAFLVSPLASAITGATIYVDNGLNSMGVALDSPVFKDLDK”, the “soluble on expression in E. coli” value was “soluble”.

For the sequence “MEDISDPEVILEYGVYPAFIKGYTQLKANIEEALLEMSNSGQALDIYQAVQTLNAENMLLNYYESLPFYLNRQSILANMTKALKDAHIREAMAHYKLGEFAHYQDTMLDMVERTIKTF”, the “soluble on expression in E. coli” value was “not soluble”.

Turning to “MQVDADLRPILGPQLVRLDPMRVKQLQDPIVYEAIDNLAKLSAHCLQLRTPLTTCEKLINSDSTLYLSWKYDEEEKVSRLMGFAKVGRKKLFLYDSQMQTYEGEILCLLDFYVHFSCQRQGVGQQILDYMFSQEHTEPYQLALDNPSVTLLGFMSQKYGLIKPVWQNTNFVVFEELFLALSAENGIEKPPPDGWRRPMTPRRLGTGMTDTRWLQHAVSGHQSKGNAMAAPVDADMTPQGALSNRAHQAKARKAHILSSKPLW”, the “soluble on expression in E. coli” value is listed as “soluble”.

With “TWTYILRQGDLPPGEMQRYEGGPEPVMVCNVDGEFFAVQDTCTHGDWALSDGYLDGDIVECTLHFGKFCVRTGKVKALPACKPIKVFPIKVEGDEVHVDLDNGELK”, the “soluble on expression in E. coli” value is listed as “soluble”.

With “MIIHFTLNGAPQELTVNPGENVQKLLFNMGMHSVRNSDDGFGFAGSDAIIFNGNIVNASLLIAAQLEKADIRTAESLGKWNELSLVQQAMVDVGVVQSGYNDPAAALIITDLLDRIAAPTREEIDDALSGLFSRDAGWQQYYQVIELAVARKNNPQATIDIAPTFRDDLEVIGKHYPKTDAAKMVQAKPCYVEDRVTADACVIKMLRSPHAHALITHLDVSKAEALPGVVHVITHLNCPDIYYTPGGQSAPEPSPLDRRMFGKKMRHVGDRVAAVVAESEEIALEALKLIDVEYEVLKPVMSIDEAMAEDAPVVHDEPVVYVAGAPDTLEDDNSHAAQRGEHMIINFPIGSRPRKNIAASIHGHIGDMDKGFADADVIIERTYNSTQAQQCPTETHICFTRMDGDRLVIHASTQVPWHLRRQVARLVGMKQHKVHVIKERVGGGFGSKQDILLEEVCAWATCVTGRPVLFRYTREEEFIANTSRHVAKVTVKLGAKKDGRLTAVKMDFRANTGPYGNHSLTVPCNGPALSLPLYPCDNVDFQVTTYYSNICPNGAYQGYGAPKGNFAITMALAELAEQLQIDQLEIIERNRVHEGQELKILGAIGEGKAPTSVPSAASCALEEILRQGREMIQWSSPKPQNGDWHIGRGVAIIMQKSGIPDIDQANCMIKLESDGTFIVHSGGADIGTGLDTVVTKLAAEVLHCPPQDVHVISGDTDHALFDKGAYASSGTCFSGNAARLAAENLREKILFHGAQMLGEPVADVQLATPGVVRGKKGEVSFGDIAHKGETGTGFGSLVGTGSYITPDFAFPYGANFAEVAVNTRTGEIRLDKFYALLDCGTPVNPELALGQIYGATLRAIGHSMSEEIIYDAEGHPLTRDLRSYGAPKIGDIPRDFRAVLVPSDDKVGPFGAKSISEIGVNGAAPAIATAIHDACGIWLREWHFTPEKILTALEKI”, the “soluble on expression in E. coli” value is recorded as “soluble”.

On to “MSLTVSKINEKATPVKKWTVYLVQHTHTDIGYTKPQTEILSEHLRYIDYAIEYCEQTKDYTNDAKFRWTCESAWAVDEYLKNRPEEQVNKLKKYIAEGQIEVASMYFNMSEIVDENSFKTFLQPVKEFRKHGIPSALAMQNDVNGIAWCLADYLPDLGIKYLWMGEHHYKSQVPFNMPTVFQWESPSGKPILTYRADHYNTGNFWGIEQGDIQKTEPKLLHYLSELERKHYPFDAVGVQYSGYFTDNSPPSIIECKLIREWNEKYAYPKLRSATASEFMDYVTERYGDKIPAYRAAYPDWWTDGFGSAARETAASRKTHSDMTAVEGLLSMAVLKDKCLPQATHQQIEHIHESLLFYDEHTFGASESVSDPLCENSQVQWGEKSAYAWEAVKRTQMLYETSVGLLQGDLRRGKNPTLTIFNTLNWKRSEMLTVYIDFEVIPRNQFFEITDFQGHSLKVQPIRYRREGCYYAIFAEDIPPMGYKTFEIVFKQPSTDTGTITINNASIENHFYKLQLNPDKGTIQSLYDKELNCELVDSSSPWELGAFIYEKLGNRDQLAQYRLDDYNRTGLSECRIIDSSNGPIYQRILLQGKSPGTDEAFGVNLEIKLYHDTKRIELEYAIKRLPETDPSGIYVAFPFQLPEGKLAFDVQGGTVISGKNQLEGTSTDWNTVQNFVSVQNNQAQIIIGSSLIPLYQLGDINLGKFQYQKQYERPHVYSWVMNNYWNTNFKASQEGEFRWSYHLTSSVDPSNNLATKFGWSSRIPLYARVMPTGTENHKPTEYSAFHFEKDNFLMTSCTPSKEEGYILLNIREIDGKRTNLRILNEDGQTIPFTIVNAIEEKLENETSEHIFEGYQNKFIKIKREGHHHHHH”, for which the “soluble on expression in E. coli” value is on record as “soluble”.
